According to PMC2823527 (The Journal of Biological Chemistry, 2009):
Like-named read-outs stand apart in the source and are kept apart here. One block for each binder: values may come before it.

T1: Sgf11 full-length, released from GST (S. cerevisiae, UniProt Q03067 1-99)
T1 sequence (looked up): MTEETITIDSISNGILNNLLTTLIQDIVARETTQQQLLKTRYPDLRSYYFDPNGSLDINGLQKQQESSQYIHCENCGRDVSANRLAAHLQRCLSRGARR

T2: GST-Sac3 753-805 / Cdc31 complex (yeast, UniProt P46674 753-805; P06704 1-161)
T2 sequence (looked up) 1: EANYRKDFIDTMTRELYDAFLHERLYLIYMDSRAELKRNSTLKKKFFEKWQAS
T2 sequence (looked up) 2: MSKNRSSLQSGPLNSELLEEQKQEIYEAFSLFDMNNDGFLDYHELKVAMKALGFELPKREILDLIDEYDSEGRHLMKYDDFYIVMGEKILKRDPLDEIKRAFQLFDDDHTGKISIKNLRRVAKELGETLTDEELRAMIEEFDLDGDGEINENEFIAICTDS

T3: GST-Sac3 723-805 / Cdc31 complex (yeast, UniProt P46674 723-805; P06704 1-161)
T3 sequence (looked up) 1: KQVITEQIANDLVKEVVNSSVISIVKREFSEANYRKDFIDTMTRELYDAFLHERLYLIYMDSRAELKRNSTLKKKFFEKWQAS
T3 sequence (looked up) 2: T2 sequence (looked up) 2

B1: Sus1 (natural protein, yeast, UniProt Q6WNK7 1-96, looked up)
chain: MTMDTAQLKSQIQQYLVESGNYELISNELKARLLQEGWVDKVKDLTKSEMNINESTNFTQILSTVEPKALEMVSDSTRETVLKQIREFLEEIVDTQ

Tests used:
Sus1 [1] = target: B1; test: crystal structure
Sus1 [2] = target: B1; test: crystal structure; remark: listed apart in the source
[3] = target: T1, Sgf11 full-length, released from GST; test: SEC
[4] = target: T2, GST-Sac3 753-805 / Cdc31 complex; test: pull-down
[5] = target: T3, GST-Sac3 723-805 / Cdc31 complex; test: pull-down

- binding result (Sus1 [1]): binds
Binder: TIDSISNGILNNLLTTLIQDIVARETT (domain or fragment, S. cerevisiae, UniProt Q03067 7-33, looked up) [Sgf11-(7-33), released from GST]

- binding result (Sus1 [2]): binds
Binder: MTEETITIDSISNGILNNLLTTLIQDIVARETT (domain or fragment, S. cerevisiae, UniProt Q03067 1-33, looked up) [Sgf11-(1-33), released from GST]

Binder: B1
- binding result [3]: binds
- binding result [4]: binds
- binding result [5]: binds
